According to PMC9814900:

Molecular target: MDM2 25-109 (Homo sapiens), Q00987
Experiment: BLI competition
Conditions: modification not given

Kd: 4.7 nM
B1: peptide 34 (peptide)
chain: AAFAAYWAALAAK
